Laboratory results: publication PMC6299093, “BRCA2 controls DNA:RNA hybrid level at DSBs by mediating RNase H2 recruitment”

Key:
[1] = target: T1, BRCA1 (Homo sapiens, UniProt P38398 1-1863); test: EMSA; 1 mM EDTA; 10 nM substrate; 25 mM Tris-HCl pH 7.5, 90 mM KCl, 1 mM EDTA, 1 mM DTT, 0.1 mg/ml BSA, RNaseOUT; 37 C 30 min; 10 nM substrate (competition: 1 nM, 10 + 10 min); 6% native PAGE at 4 C; settings: protein: recombinant; tags: C-terminal 10xHis; N-terminal 2xMBP cleaved off with PreScission; blunt
[2] = target: T2, BRCA1;BARD1 (Homo sapiens;Homo sapiens, UniProt P38398;Q99728 1-1863;1-777, |); test: EMSA; 1 mM EDTA; 10 nM substrate; resistant to increasing salt (Supplementary Fig. 5a); 25 mM Tris-HCl pH 7.5, 90 mM KCl, 1 mM EDTA, 1 mM DTT, 0.1 mg/ml BSA, RNaseOUT; 37 C 30 min; 10 nM substrate (competition: 1 nM, 10 + 10 min); 6% native PAGE at 4 C; settings: protein: recombinant;recombinant; tags: C-terminal 10xHis; N-terminal 2xMBP cleaved off with PreScission;; copies: 1;1; blunt
[3] = target: T2, BRCA1;BARD1; test: EMSA; 1 mM EDTA; 10 nM substrate; affinity comparable to dsDNA; resistant to increasing salt (Supplementary Fig. 5a); 25 mM Tris-HCl pH 7.5, 90 mM KCl, 1 mM EDTA, 1 mM DTT, 0.1 mg/ml BSA, RNaseOUT; 37 C 30 min; 10 nM substrate (competition: 1 nM, 10 + 10 min); 6% native PAGE at 4 C; settings: protein: recombinant;recombinant; tags: C-terminal 10xHis; N-terminal 2xMBP cleaved off with PreScission;; copies: 1;1; blunt
[4] = target: T1, BRCA1; test: EMSA; 1 mM EDTA; 10 nM substrate; affinity comparable to dsDNA; 25 mM Tris-HCl pH 7.5, 90 mM KCl, 1 mM EDTA, 1 mM DTT, 0.1 mg/ml BSA, RNaseOUT; 37 C 30 min; 10 nM substrate (competition: 1 nM, 10 + 10 min); 6% native PAGE at 4 C; settings: protein: recombinant; tags: C-terminal 10xHis; N-terminal 2xMBP cleaved off with PreScission; blunt

Binder	binding result [1]	binding result [2]	binding result [3]	binding result [4]
X12-3/X12-4C dsDNA 50 bp (dsDNA) DNA 1: GACGTCATAGACGATTACATTGCTAGGACATGCTGTCTAGAGACTATCGC DNA 2: GCGATAGTCTCTAGACAGCATGTCCTAGCAATGTAATCGTCTATGACGTC	binds	binds		
X12-3 DNA/X12-4C RNA hybrid 50 bp (DNA:RNA, second strand RNA) DNA: GACGTCATAGACGATTACATTGCTAGGACATGCTGTCTAGAGACTATCGC RNA: GCGAUAGUCUCUAGACAGCAUGUCCUAGCAAUGUAAUCGUCUAUGACGUC			binds	binds
